We go through one substance from publication doi:10.1101/2020.08.17.254268.

This test addresses CeOSM-3 kinesin-2 motor, SNAP-tagged and labelled (CeOSM-3^SNAP647) (C. elegans) (UniProt P46873).
Sequence of UniProt P46873 (P46873 whole entry): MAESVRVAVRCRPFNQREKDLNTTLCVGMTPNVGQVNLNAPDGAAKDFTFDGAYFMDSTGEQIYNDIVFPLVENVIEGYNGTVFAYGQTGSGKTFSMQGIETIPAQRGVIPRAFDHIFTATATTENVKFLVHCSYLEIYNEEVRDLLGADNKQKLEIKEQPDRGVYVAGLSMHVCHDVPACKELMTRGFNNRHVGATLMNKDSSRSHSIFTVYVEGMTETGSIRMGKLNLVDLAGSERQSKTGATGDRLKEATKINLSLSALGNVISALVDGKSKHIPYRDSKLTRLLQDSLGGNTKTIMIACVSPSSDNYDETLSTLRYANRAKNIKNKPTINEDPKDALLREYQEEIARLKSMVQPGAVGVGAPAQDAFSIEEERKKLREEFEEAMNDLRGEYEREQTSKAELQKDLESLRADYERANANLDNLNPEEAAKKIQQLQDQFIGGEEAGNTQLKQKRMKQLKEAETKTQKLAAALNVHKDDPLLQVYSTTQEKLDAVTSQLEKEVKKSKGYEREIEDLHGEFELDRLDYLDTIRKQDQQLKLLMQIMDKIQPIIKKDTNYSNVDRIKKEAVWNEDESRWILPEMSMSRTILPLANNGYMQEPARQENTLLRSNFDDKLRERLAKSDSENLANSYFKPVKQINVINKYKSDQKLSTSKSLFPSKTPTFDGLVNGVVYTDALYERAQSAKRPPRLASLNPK

In turn, “MmIFT-52^GFP/IFT-70^SNAP647 adaptor (from UniProt Q62559 1-426; Q99J38 1-664) (complex)” yielded a runlength of CeOSM-3 with MmIFT-52/IFT-70 in the single-molecule transport assay of 3 μm and a velocity of CeOSM-3 with MmIFT-52/IFT-70 in the single-molecule transport assay of 1.72 μm/s.
